In series [1] the target is T1, rPfARO (Plasmodium falciparum 3D7) (UniProt C0H4A5).
T1 sequence: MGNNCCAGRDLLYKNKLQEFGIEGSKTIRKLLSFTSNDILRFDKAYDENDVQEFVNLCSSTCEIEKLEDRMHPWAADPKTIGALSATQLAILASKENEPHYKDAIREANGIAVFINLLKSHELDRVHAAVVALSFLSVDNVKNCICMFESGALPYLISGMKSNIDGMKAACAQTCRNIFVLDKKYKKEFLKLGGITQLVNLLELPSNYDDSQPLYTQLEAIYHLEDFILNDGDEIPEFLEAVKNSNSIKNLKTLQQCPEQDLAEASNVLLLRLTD
The series can be described thus: EMSA. To be noted: EMSA: 10 mM Tris-Cl pH 7.5, 100 mM KCl, 5 mM MgCl2, 2 mM DTT, 6% glycerol, 50 ug/ml BSA, 25 ul; temperature not stated.

In series [2] the target is T1, rPfARO (Plasmodium falciparum 3D7). Kind of series: competition. To be noted: EMSA: 10 mM Tris-Cl pH 7.5, 100 mM KCl, 5 mM MgCl2, 2 mM DTT, 6% glycerol, 50 ug/ml BSA, 25 ul; temperature not stated.
Series [3] deals with the molecule itself. The series can be described thus: non-reducing SDS-PAGE; purified rPfARO run under non-reducing conditions, stained gel and anti-His immunoblot; ~60 kDa dimer band beside the ~32 kDa monomer; dimer band diminished progressively with increasing DTT; both bands confirmed as PfARO by LC-MS.
Series [4] concerns the molecule itself. The series can be described thus: non-reducing SDS-PAGE; immunoblot of parasite lysate under non-reducing conditions with anti-PfARO antibodies; ~60 kDa dimer beside the ~32 kDa monomer.

Turning to “TTTTATATCATTTAATTCATATGTCTTTTCTTTCTTCTTCGCCTTCAGATCATAAGGATCTTGGACCTTTTTTCTTTCCTTCTTTTCAGAACACAAAGATGTACAACTAAAAGCATTGTCTGTATATGTTGAACGATTACTCTTGAAGGATCCCG (double strand) [AT-rich PfgyrA DNA]”, the binding entry in series [1] and in series [2] was “binds” each time.

B1: Recombinant PfARO (P. falciparum Armadillo Repeats Only protein), full length, C-terminal 6-His tag (natural protein, P. falciparum (strain 3D7), UniProt C0H4A5 1-275, looked up)
chain: MGNNCCAGRDLLYKNKLQEFGIEGSKTIRKLLSFTSNDILRFDKAYDENDVQEFVNLCSSTCEIEKLEDRMHPWAADPKTIGALSATQLAILASKENEPHYKDAIREANGIAVFINLLKSHELDRVHAAVVALSFLSVDNVKNCICMFESGALPYLISGMKSNIDGMKAACAQTCRNIFVLDKKYKKEFLKLGGITQLVNLLELPSNYDDSQPLYTQLEAIYHLEDFILNDGDEIPEFLEAVKNSNSIKNLKTLQQCPEQDLAEASNVLLLRLTD
notes: PfARO, Plasmodium falciparum strain 3D7, PlasmoDB PF3D7_0414900; full length open reading frame of 275 amino acids amplified from 3D7 cDNA; putative NES at residues 198-204 (LVNLLEL); nine cysteines; Cloned NdeI/XhoI into pET-24b; also called rPfARO; ARM Repeats Only; source: E. coli BL21 (DE3) Codon+, purified (Ni-NTA, size exclusion chromatography on Superdex-200); not shown: His6, C-terminal, …
B1: the “stoichiometry N” value in series [3] was found to be 2.

B2: Native PfARO parasite protein (natural protein, UniProt C0H4A5 1-275, looked up)
chain: MGNNCCAGRDLLYKNKLQEFGIEGSKTIRKLLSFTSNDILRFDKAYDENDVQEFVNLCSSTCEIEKLEDRMHPWAADPKTIGALSATQLAILASKENEPHYKDAIREANGIAVFINLLKSHELDRVHAAVVALSFLSVDNVKNCICMFESGALPYLISGMKSNIDGMKAACAQTCRNIFVLDKKYKKEFLKLGGITQLVNLLELPSNYDDSQPLYTQLEAIYHLEDFILNDGDEIPEFLEAVKNSNSIKNLKTLQQCPEQDLAEASNVLLLRLTD
notes: PfARO, Plasmodium falciparum strain 3D7, PlasmoDB PF3D7_0414900; native protein detected at ~32 kDa; source: endogenous, P. falciparum 3D7 schizont-stage parasite lysate (detergent based)
Consider B2, for which the “stoichiometry N” value in series [4] turned out to be 2.

The record behind these values is article PMC4734682, “Evidence for the Nucleo-Apical Shuttling of a Beta-Catenin Like Plasmodium falciparum Armadillo Repeat Containing Protein” (PLoS ONE, 2016).
